Measurements as given in patent US20240352434, “COMPOSITIONS COMPRISING A VARIANT CAS12I3 POLYPEPTIDE AND USES THEREOF” (Arbor Biotechnologies, Inc., published 2024).
Changes are numbered by the printed parent chain.

B1: VEGFA_T2 crRNA ; VEGFA_T2 target (ssRNA ; dsDNA)
RNA: AUAGUGUGUCCUUAGUUGACAUAAUCCUCCACCAGUCAUGGU
DNA 1: AATCCTCCACCAGTCATGGT
DNA 2: ACCATGACTGGTGGAGGATT
B2: AAVS1_T3 crRNA ; AAVS1_T3 target (ssRNA ; dsDNA)
RNA: AUAGUGUGUCCUUAGUUGACAUGUGAGAAUGGUGCGUCCUAG
DNA 1: GTGAGAATGGTGCGTCCTAG
DNA 2: CTAGGACGCACCATTCTCAC
B3: EMX1_T5 crRNA ; EMX1_T5 target (ssRNA ; dsDNA)
RNA: AUAGUGUGUCCUUAGUUGACAUUAUUAUUCCCAUAGGGAAGG
DNA 1: TATTATTCCCATAGGGAAGG
DNA 2: CCTTCCCTATGGGAATAATA

Target: T1, Cas12i3 S801R (Unidentified, S801R)
T1 chain: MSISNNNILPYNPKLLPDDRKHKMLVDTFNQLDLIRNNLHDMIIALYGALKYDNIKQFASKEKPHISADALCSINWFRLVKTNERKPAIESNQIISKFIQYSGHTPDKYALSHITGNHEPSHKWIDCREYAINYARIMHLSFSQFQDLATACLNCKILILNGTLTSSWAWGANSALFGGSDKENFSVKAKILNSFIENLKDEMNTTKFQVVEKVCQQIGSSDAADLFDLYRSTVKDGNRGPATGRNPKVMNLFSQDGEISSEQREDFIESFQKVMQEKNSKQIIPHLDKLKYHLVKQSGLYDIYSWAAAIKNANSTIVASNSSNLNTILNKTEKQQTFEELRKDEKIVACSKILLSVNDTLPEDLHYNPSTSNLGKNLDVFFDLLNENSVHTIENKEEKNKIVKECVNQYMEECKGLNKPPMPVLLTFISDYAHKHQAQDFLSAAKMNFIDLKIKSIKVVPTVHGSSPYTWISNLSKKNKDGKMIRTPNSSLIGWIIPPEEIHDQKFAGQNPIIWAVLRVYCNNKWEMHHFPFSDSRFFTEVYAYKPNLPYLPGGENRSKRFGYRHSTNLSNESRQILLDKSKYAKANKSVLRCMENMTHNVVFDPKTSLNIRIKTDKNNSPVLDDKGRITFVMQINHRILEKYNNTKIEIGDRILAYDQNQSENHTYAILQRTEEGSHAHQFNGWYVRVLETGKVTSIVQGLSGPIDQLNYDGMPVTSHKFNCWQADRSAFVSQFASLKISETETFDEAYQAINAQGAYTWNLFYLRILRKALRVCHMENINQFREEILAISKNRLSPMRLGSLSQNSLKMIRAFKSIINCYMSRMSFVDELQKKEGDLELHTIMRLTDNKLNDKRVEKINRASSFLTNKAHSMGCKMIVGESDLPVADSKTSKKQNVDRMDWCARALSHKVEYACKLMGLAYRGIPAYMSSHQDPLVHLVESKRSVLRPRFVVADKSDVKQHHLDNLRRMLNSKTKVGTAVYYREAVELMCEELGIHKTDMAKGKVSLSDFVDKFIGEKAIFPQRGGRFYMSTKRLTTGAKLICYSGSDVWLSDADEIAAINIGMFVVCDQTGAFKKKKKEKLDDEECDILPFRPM
Experiment: cell_activity; fold change in % indels, HEK293T; PAM not stated in example
Outline: (§1)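 HEK293T cells lipofected with Lipofectamine 2000 (crRNA omitted in negative controls). Harvested 72 h post-transfection and lysed in QuickExtract. Target loci amplified by two-round PCR and sequenced on NextSeq (150 cycles) to quantify % indels.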
With B1 the binding signal was 1.74 fold of wild-type.
With B2 the binding signal was 2.2 fold of wild-type.
B3 was tested, and the binding signal was 1.44 fold of wild-type.

Target: T2, Cas12i3 N711R (Unidentified, N711R)
T2 chain: T1 chain with N711R, R801S
Experiment: as above
Outline: as §1
For B1, the binding signal was 2.17 fold of wild-type.
In the case of B2, the binding signal is reported as 2.79 fold of wild-type.
With B3 the binding signal was 1.56 fold of wild-type.
